Source: patent publication US20240317834A1, “COMPOSITIONS AND METHODS FOR NEUROLOGICAL DISEASES” (CODA BIOTHERAPEUTICS, INC., priority 2020, published 2024)
Numbering of substitutions follows the chain as printed. Names and notes keep the numbering of the source.

Tested on: Lenti-X 293T cells
Assay: YFP fluorescence quenching anion reporter plate reader assay of engineered receptors stimulated with acetylcholine or a non-native ligand
Format: cell-based
Details: for percent quench of YFP fluorescence, 30 nM TC-6683: TC-6683 30 nM; for percent quench of YFP fluorescence, 300 nM TC-6683: TC-6683 300 nM; for percent quench of YFP fluorescence, 3 uM TC-6683: TC-6683 3 uM; for percent quench of YFP fluorescence, 30 uM TC-6683: TC-6683 30 uM; for percent quench of YFP fluorescence, 100 uM TC-6683: TC-6683 100 uM; for percent quench of YFP fluorescence, 10 uM ach: acetylcholine 10 uM; for percent quench of YFP fluorescence, 100 uM ach: acetylcholine 100 uM; for percent quench of YFP fluorescence, 1 mM ach: acetylcholine 1 mM; for percent quench of YFP fluorescence, 3 mM ach: acetylcholine 3 mM
Method in brief: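 Lenti-X 293T cells carrying a YFP anion reporter were transiently transfected with channel DNA and assayed the next day in HEPES-buffered ECS at pH 7.2. Ligand (acetylcholine or non-native ligand) was added in NaI-substituted ECS. Percent quench was the mean of the last 10 s relative to the 15 s pre-addition baseline.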

B1: CODA330: engineered chimeric LGIC receptor, L131F in SEQ ID NO: 33 (protein)
chain: MRCSPGGVWLALAASLLHVSLQGEFQRKLYKELVKNYNPLERPVANDSQPLTVYFSLSLLQIMDVDEKNQVLTTNIWLQMSWTDHYLQWNVSEYPGVKTVRFPDGQIWKPDILLYNSADERFDATFHTNVFVNSSGHCQYLPPGIFKSSCPMDLKNFPMDVQTCKLKFGSWSYGGWSLDLQMQEADISGYIPNGEWDLVGIPGKRSERFYECCKEPYPDVTFTVTMRRRMGYYLIQMYIPSLLIVILSWISFWINMDAAPARVGLGITTVLTMTTQSSGSRASLPKVSYVKAIDIWMAVCLLFVFSALLEYAAVNFVSRQHKELLRFRRKRRHHKSPMLNLFQEDEAGEGRFNFSAYGMGPACLQAKDGISVKGANNSNTTNPPPAPSKSPEEMRKLFIQRAKKIDKISRIGFPMAFLIFNMFYWIIYKIVRREDVHNQ
modifications: synthetic sequence of chimeric LGIC
- YFP fluorescence quenching using CNL001 (1 nM CNL001, first column): 76.289%
- YFP fluorescence quenching using CNL001 (1 nM CNL001, second column): 78.896%
- YFP fluorescence quenching using TC-5619/Bradanicline (1 nM brd): −12.4%
- YFP fluorescence quenching using TC-5619/Bradanicline (3 nM brd): 25.12%
- YFP fluorescence quenching using Varenicline (3 nM var, first column): −3.016
- YFP fluorescence quenching using Varenicline (3 nM var, second column): −1.452
- YFP fluorescence quenching using CNL001 (10 nM CNL001, first column): 79.339%
- YFP fluorescence quenching using CNL001 (10 nM CNL001, second column): 80.245%
- YFP fluorescence quenching using TC-5619/Bradanicline (10 nM brd): 72.19%
- YFP fluorescence quenching using TC-5619/Bradanicline (30 nM brd): 76.35%
- YFP fluorescence quenching using Facinicline (30 nM fac): 2.9
- YFP fluorescence quenching using Varenicline (30 nM var, first column): −0.193
- YFP fluorescence quenching using Varenicline (30 nM var, second column): −1.853
- YFP fluorescence quenching using CNL001 (50 nM CNL001, first column): 80.831%
- YFP fluorescence quenching using CNL001 (50 nM CNL001, second column): 80.605%
- YFP fluorescence quenching using ABT-126 (50 nM abt): −16.22%
- YFP fluorescence quenching using CNL001 (100 nM CNL001, first column): 81%
- YFP fluorescence quenching using CNL001 (100 nM CNL001, second column): 80.663%
- YFP fluorescence quenching using CNL002 (100 nM CNL002): −3.76%
- YFP fluorescence quenching using ABT-126 (100 nM abt): −11.89%
- YFP fluorescence quenching using AZD-0328 (100 nM azd0328): 27.56%
- YFP fluorescence quenching using TC-5619/Bradanicline (100 nM brd): 78.94%
- YFP fluorescence quenching using ABT-126 (300 nM abt): 39.23%
- YFP fluorescence quenching using AZD-0328 (300 nM azd0328): 73.35%
- YFP fluorescence quenching using TC-5619/Bradanicline (300 nM brd): 77.06%
- YFP fluorescence quenching using Facinicline (300 nM fac): 74.96
- YFP fluorescence quenching using Varenicline (300 nM var, first column): 6.915
- YFP fluorescence quenching using Varenicline (300 nM var, second column): 6.513
- YFP fluorescence quenching using Varenicline (500 nM var, first column): 27.593
- YFP fluorescence quenching using Varenicline (500 nM var, second column): 29.863
- YFP fluorescence quenching using CNL001 (1 uM CNL001, first column): 81.293%
- YFP fluorescence quenching using CNL001 (1 uM CNL001, second column): 81.428%
- YFP fluorescence quenching using CNL002 (1 uM CNL002): 68.51%
- YFP fluorescence quenching using ABT-126 (1 uM abt): 66.5%
- YFP fluorescence quenching using TC-5619/Bradanicline (1 uM brd): 78.61%
- YFP fluorescence quenching using TC-6987 (1 uM tc6987): 53.37
- YFP fluorescence quenching using Varenicline (1 uM var, first column): 67.499
- YFP fluorescence quenching using Varenicline (1 uM var, second column): 65.57
- YFP fluorescence quenching using Facinicline (10 uM fac): 81.97
- YFP fluorescence quenching using TC-6987 (10 uM tc6987): 74.23
- YFP fluorescence quenching using CNL002 (30 uM CNL002): 77.77%
- YFP fluorescence quenching using AZD-0328 (30 uM azd0328): 77.14%
- YFP fluorescence quenching using Facinicline (30 uM fac): 78.31
- YFP fluorescence quenching using TC-6987 (500 uM tc6987): 72.25
- percent quench of YFP fluorescence, 30 nM TC-6683: −22.26%
- percent quench of YFP fluorescence, 300 nM TC-6683: −18.89%
- percent quench of YFP fluorescence, 3 uM TC-6683: −9.45%
- percent quench of YFP fluorescence, 30 uM TC-6683: −9.23%
- percent quench of YFP fluorescence, 100 uM TC-6683: −10.75%
- percent quench of YFP fluorescence, 10 uM ach: 11.07%
- percent quench of YFP fluorescence, 100 uM ach: 43.34%
- percent quench of YFP fluorescence, 1 mM ach: 77.52%
- percent quench of YFP fluorescence, 3 mM ach: 74.89%

B2: CODA333: engineered chimeric LGIC receptor, L131S in SEQ ID NO: 33 (protein)
chain: B1 chain with F131S
modifications: synthetic sequence of chimeric LGIC
- YFP fluorescence quenching using CNL001 (1 nM CNL001, first column): 76.165%
- YFP fluorescence quenching using CNL001 (1 nM CNL001, second column): 78.463%
- YFP fluorescence quenching using TC-5619/Bradanicline (1 nM brd): −0.85%
- YFP fluorescence quenching using TC-5619/Bradanicline (3 nM brd): −2.05%
- YFP fluorescence quenching using Varenicline (3 nM var, first column): −4.782
- YFP fluorescence quenching using Varenicline (3 nM var, second column): 1.048
- YFP fluorescence quenching using CNL001 (10 nM CNL001, first column): 79.349%
- YFP fluorescence quenching using CNL001 (10 nM CNL001, second column): 78.238%
- YFP fluorescence quenching using TC-5619/Bradanicline (10 nM brd): −2.8%
- YFP fluorescence quenching using TC-5619/Bradanicline (30 nM brd): −2.07%
- YFP fluorescence quenching using Facinicline (30 nM fac): 6.27
- YFP fluorescence quenching using Varenicline (30 nM var, first column): 2.084
- YFP fluorescence quenching using Varenicline (30 nM var, second column): 5.022
- YFP fluorescence quenching using CNL001 (50 nM CNL001, first column): 80.221%
- YFP fluorescence quenching using CNL001 (50 nM CNL001, second column): 81.789%
- YFP fluorescence quenching using ABT-126 (50 nM abt): −20.99%
- YFP fluorescence quenching using CNL001 (100 nM CNL001, first column): 81.855%
- YFP fluorescence quenching using CNL001 (100 nM CNL001, second column): 80.766%
- YFP fluorescence quenching using CNL002 (100 nM CNL002): −15.44%
- YFP fluorescence quenching using ABT-126 (100 nM abt): −16.21%
- YFP fluorescence quenching using AZD-0328 (100 nM azd0328): 38.49%
- YFP fluorescence quenching using TC-5619/Bradanicline (100 nM brd): 30.34%
- YFP fluorescence quenching using ABT-126 (300 nM abt): −13.34%
- YFP fluorescence quenching using AZD-0328 (300 nM azd0328): 67.13%
- YFP fluorescence quenching using TC-5619/Bradanicline (300 nM brd): 50.56%
- YFP fluorescence quenching using Facinicline (300 nM fac): 69.8
- YFP fluorescence quenching using Varenicline (300 nM var, first column): 12.162
- YFP fluorescence quenching using Varenicline (300 nM var, second column): 12.979
- YFP fluorescence quenching using Varenicline (500 nM var, first column): 29.238
- YFP fluorescence quenching using Varenicline (500 nM var, second column): 25.614
- YFP fluorescence quenching using CNL001 (1 uM CNL001, first column): 81.707%
- YFP fluorescence quenching using CNL001 (1 uM CNL001, second column): 82.665%
- YFP fluorescence quenching using CNL002 (1 uM CNL002): 15.21%
- YFP fluorescence quenching using ABT-126 (1 uM abt): 4.96%
- YFP fluorescence quenching using TC-5619/Bradanicline (1 uM brd): 72.42%
- YFP fluorescence quenching using TC-6987 (1 uM tc6987): −3.87
- YFP fluorescence quenching using Varenicline (1 uM var, first column): 43.863
- YFP fluorescence quenching using Varenicline (1 uM var, second column): 39.346
- YFP fluorescence quenching using TC-6987 (3 uM tc6987): −20.2
- YFP fluorescence quenching using TC-6987 (5 uM tc6987): −15.25
- YFP fluorescence quenching using Facinicline (10 uM fac): 80.07
- YFP fluorescence quenching using TC-6987 (10 uM tc6987): 4.92
- YFP fluorescence quenching using AZD-0328 (30 uM azd0328): 80.61%
- YFP fluorescence quenching using Facinicline (30 uM fac): 81.35
- YFP fluorescence quenching using TC-6987 (30 uM tc6987): 14.75
- YFP fluorescence quenching using TC-6987 (50 uM tc6987): 21.33
- YFP fluorescence quenching using TC-6987 (100 uM tc6987): 29.7
- YFP fluorescence quenching using TC-6987 (300 uM tc6987): 20.79
- YFP fluorescence quenching using TC-6987 (500 uM tc6987): 44.37
- percent quench of YFP fluorescence, 30 nM TC-6683: −23.88%
- percent quench of YFP fluorescence, 300 nM TC-6683: −21.46%
- percent quench of YFP fluorescence, 3 uM TC-6683: −21.07%
- percent quench of YFP fluorescence, 30 uM TC-6683: −16.15%
- percent quench of YFP fluorescence, 100 uM TC-6683: −18.96%
- percent quench of YFP fluorescence, 10 uM ach: −10.11%
- percent quench of YFP fluorescence, 100 uM ach: −10.05%
- percent quench of YFP fluorescence, 1 mM ach: 32.11%
- percent quench of YFP fluorescence, 3 mM ach: 57.37%
